Test results as given in the Human Domainome abundance scans (Beltran et al. 2025).

B1: Cold shock protein CspB, residues 1 to 66; numbered along this chain, P41016 (parent)
chain: MQRGKVKWFNNEKGYGFIEVEGGSDVFVHFTAIQGEGFKTLEEGQEVSFEIVQGNRGPQAANVVKL

Variants of: B1
Assay: abundance fitness (aPCA) (normalised: wild type 0, dead -1); higher = more abundant; growth selection in yeast, the domain comes from the species named
Conditions: Bacillus caldolyticus

Abundance fitness: each site, then its substitutions
H29: V -0.506; R -0.281; N -0.228; L -0.48; I -0.538; S -0.345; M -0.274; K -0.197; T -0.28; Y -0.149; A -0.532; Q -0.174
G23: K 0.052; F -0.034; Y -0.061; S 0.011; V -0.021; C 0.029; L -0.003; R 0.028; T 0.003; I -0.041; W -0.057; P -0.011; Q 0.012; D 0.026; N -0.066; M 0; A 0.03; H -0.053
E36: H -0.047; P -0.017; G -0.004; L -0.024; N -0.037; M -0.085; V -0.003; Q 0.021; F -0.023; S -0.007; W -0.017; T -0.006; R 0.006; C -0.042; D -0.019
G22: T 0.025; V -0.02; L -0.012; S 0.011; W -0.019; Y -0.063; E -0.013; C 0.02; F -0.016; M -0.01; Q -0.035; R -0.011; I -0.027
K39: L -0.059; Q -0.071; G -0.154; Y -0.148; E -0.114; S -0.072; H -0.08; A -0.013; W -0.194; T -0.103; P -0.149; C -0.08; R -0.003; N -0.077; M -0.137; I -0.133; V -0.092; D -0.148
T31: S -0.011; R -0.044; Y -0.3; V -0.345; D -0.141; M -0.13; N -0.127; W -0.289; I -0.314; H -0.074; G -0.079; K -0.066; A -0.134; F -0.431; C -0.146; E -0.087; Q -0.132
F30: K -0.016; I -0.087; Y 0.011; V -0.049; T -0.127; D -0.188; Q -0.025; N -0.07; W -0.026; C -0.091; L -0.103; A -0.035; M -0.169; H -0.023; S -0.047; P -0.227; G -0.089
I33: Q -0.381; V -0.024; A -0.311; S -0.422; L -0.082; F -0.111; W -0.462; G -0.41; C -0.127; R -0.484; E -0.477; K -0.456; D -0.369; M -0.144; Y -0.527
L41: C -0.121; D -0.554; A -0.111
G37: S -0.072; H -0.036; P -0.119; E -0.05; I -0.18; Y -0.074; L -0.126; C -0.049; M -0.117; F -0.153; V -0.086; Q -0.078; D -0.133; R -0.083; T -0.069; A -0.082; W -0.141
T40: W -0.076; C -0.006; P -0.227; M -0.04; F -0.009; A -0.022; Y -0.037; L -0.087; S -0.023; G -0.048; I -0.032; N -0.078; D -0.112; R -0.043; K -0.065; Q -0.041; H -0.064; V -0.043; E -0.027
V20: P 0.018; Y -0.001; W 0.056
